Consider one molecule from patent US20200299675A1 (UNIVERSITY OF ROCHESTER, published 2020).

The target in this assay is T1, streptavidin (Streptomyces avidinii, UniProt P22629 37-163).
T1 construct: also called streptavidin-coated beads; streptavidin-coated magnetic beads
The assay is described as follows: direct binding assay with plate-immobilized streptavidin and HRP-conjugated anti-FLAG antibody.

T1 sequence (P22629 37-163, tags left off): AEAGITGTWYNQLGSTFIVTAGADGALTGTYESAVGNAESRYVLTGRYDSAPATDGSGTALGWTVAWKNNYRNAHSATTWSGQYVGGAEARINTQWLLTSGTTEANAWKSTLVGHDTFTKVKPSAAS
Protocol: For the Keap1 binding assay, Keap1 was immobilized on microtiter plates by incubating 100 μL of a 4 μM protein solution in PBS buffer overnight at 4° C., followed by washing (3×150 μL of PBS with 0.5% Tween-20) and blocking with 0.5% bovine serum albumin in PBS for 1.5 h at room temperature. After washing, each well was incubated with 100 μL of purified FLAG-tagged peptide at varying concentrations for 1 hour at room temperature. After washing three times with wash buffer, each well was incubated with 100 μL of 1:2500 dilution of HRP-conjugate mouse anti-FLAG polyclonal antibody (Sigma-Aldrich) for 1 hour at room temperature. After three washing step with wash buffer, 100 μL of 2.2 mM o-phenylenediamine dihydrochloride, 4.2 mM urea hydrogen peroxide, 100 mM dibasic sodium phosphate, and 50 mM sodium citrate, pH 5.0, were added to each well, followed by measurement of the absorbance at 450 nm after 10-20 min using a Tecan Infinite 1000 plate reader. Equilibrium dissociation constants (KD) were determined by fitting the dose-response curves to a 1:1 binding isotherm equation via nonlinear regression using SigmaPlot. Mean values and standard deviations were calculated from experiments performed in triplicate.

B1: CBD alone (other)
chain: MKIEEGKLTNPGVSAWQVNTAYTAGQLVTYNGKTYKCLQPHTSLAGWEPSNVPALWQLQNNGNNGLELRHG
For B1, the binding result is given as “no binding”.
